What was measured:
[1] = test system: CC(=O)Oc1ccc([N+](=O)[O-])cc1; experiment: purified protein; settings: pH 7, 37°C
[2] = test system: CCCC(=O)Oc1ccc([N+](=O)[O-])cc1; experiment: purified protein; settings: pH 7, 37°C
[3] = test system: CCC(=O)Oc1ccc([N+](=O)[O-])cc1; experiment: purified protein; settings: pH 7, 37°C
[4] = test system: CCCCCC(=O)Oc1ccc([N+](=O)[O-])cc1; experiment: purified protein; settings: pH 7, 37°C
[5] = substrate: CCCC(=O)Oc1ccc([N+](=O)[O-])cc1; experiment: pNP release, initial rates, Michaelis-Menten fit; assay type: biochemical, Rhodopseudomonas palustris; settings: pH 9, 37°C
[6] = substrate: CCCCCC(=O)Oc1ccc([N+](=O)[O-])cc1; experiment: pNP release, initial rates, Michaelis-Menten fit; assay type: biochemical, Rhodopseudomonas palustris; settings: pH 9, 37°C
[7] = substrate: CC(=O)Oc1ccc([N+](=O)[O-])cc1; experiment: pNP release, initial rates, Michaelis-Menten fit; assay type: biochemical, Pseudomonas putida
[8] = substrate: CCC(=O)Oc1ccc([N+](=O)[O-])cc1; experiment: pNP release, initial rates, Michaelis-Menten fit; assay type: biochemical, Pseudomonas putida
[9] = substrate: CCCCCCCCCC(=O)Oc1ccc([N+](=O)[O-])cc1; experiment: pNP release, initial rates, Michaelis-Menten fit; assay type: biochemical, Pseudomonas putida; settings: pH 8, 37°C
[10] = substrate: CCCCCC(=O)Oc1ccc([N+](=O)[O-])cc1; experiment: pNP release, initial rates, Michaelis-Menten fit; assay type: biochemical, Pseudomonas putida; settings: pH 8, 37°C
[11] = substrate: CC(=O)Oc1ccc([N+](=O)[O-])cc1; experiment: pNP release, initial rates, Michaelis-Menten fit; assay type: biochemical, Pseudomonas aeruginosa; settings: pH 8, 37°C
[12] = substrate: CCCCCCCCCC(=O)Oc1ccc([N+](=O)[O-])cc1; experiment: pNP release, initial rates, Michaelis-Menten fit; assay type: biochemical, Pseudomonas aeruginosa; settings: pH 8, 37°C
[13] = substrate: CCCCCC(=O)Oc1ccc([N+](=O)[O-])cc1; experiment: pNP release, initial rates, Michaelis-Menten fit; assay type: biochemical, Pseudomonas aeruginosa; settings: pH 8, 37°C
[14] = substrate: CC(=O)Oc1ccc([N+](=O)[O-])cc1; experiment: pNP release, initial rates, Michaelis-Menten fit; assay type: biochemical, Streptomyces avermitilis; settings: pH 8, 37°C
[15] = substrate: CC(=O)Oc1ccc([N+](=O)[O-])cc1; experiment: pNP release, initial rates, Michaelis-Menten fit; assay type: biochemical, Rhodopseudomonas palustris; settings: pH 9, 37°C
[16] = substrate: CCC(=O)Oc1ccc([N+](=O)[O-])cc1; experiment: pNP release, initial rates, Michaelis-Menten fit; assay type: biochemical, Rhodopseudomonas palustris; settings: pH 9, 37°C

## RpEST-1 (Rhodopseudomonas palustris CGA009)
[1]
  Km: 0.3 ± 0.0 mM
  kcat: 65.6 ± 1.5 s⁻¹
  kcat/Km: 219000 M⁻¹ s⁻¹
[2]
  Km: 0.5 ± 0.0 mM
  kcat: 75.5 ± 1.6 s⁻¹
  kcat/Km: 151000 M⁻¹ s⁻¹
[3]
  Km: 1.5 ± 0.1 mM
  kcat: 307 ± 15.3 s⁻¹
  kcat/Km: 205000 M⁻¹ s⁻¹
[4]
  Km: 1.9 ± 0.1 mM
  kcat: 217 ± 11.8 s⁻¹
  kcat/Km: 114000 M⁻¹ s⁻¹

B1: RpEST-3 (Rhodopseudomonas palustris CGA009) (protein)
chain: MPSFDHAGVNIAYLDEGEGEPILLIHGFASNKNVNWVYPSWLSELKRTGRRVIAIDNRGHGESSKLYDPNDYTLEAMASDAVALMDHLGIARADVMGYSMGARIGANLARRQEQRVRSVVLGGLGMGLLSNEGRPGENVARALEADALDDVTDPVGRTFRAFADQTRSDRKALAACMRGSRGLMSREDAAQIAVPVLIAVGTDDDVAGSAHELGDIIPGSQVLDIPRRDHMRAVGDRVYKEGVVDFLARRP
[5]
  Km: 3.6 ± 0.4 mM
  kcat: 7.2 ± 0.7 s⁻¹
  kcat/Km: 2000 M⁻¹ s⁻¹
[6]
  Km: 2.1 ± 0.3 mM
  kcat: 5 ± 0.4 s⁻¹
  kcat/Km: 2400 M⁻¹ s⁻¹

B2: PpEST-1 (Pseudomonas putida KT2440) (protein)
chain: MRNRLVLLPGWGLGTAALEPLAASLRAQDARLQVELMPLPELAHSDVQAWIDHLDRKLPNDVWLGGWSLGGMLASALAHKRGDHCCGLLTLASNPSFLARPDWPHGMAEDTFGTFLDGCRNHTQVTLKRFRTLCSDGALQPRTLLRQLGVGVPETDPLYLATGLEVLAKLDTREALQAYDGPQLHLFAGSDALVPAEAAKALSELLPDVEVGMVEDSSHAFLLEYPQELAAGIKSFLHESGDD
[7]; pH 8, 37°C
  Km: 1.4 ± 0.1 mM
  kcat: 3.9 ± 0.2 s⁻¹
  kcat/Km: 2800 M⁻¹ s⁻¹
[8]; pH 8, 37°C
  Km: 3.0 ± 0.4 mM
  kcat: 3.1 ± 0.3 s⁻¹
  kcat/Km: 1000 M⁻¹ s⁻¹

B3: PpEST-3 (Pseudomonas putida KT2440) (protein)
chain: MIQPVAERTPAGTSYLDVGQGQPVVLIHGVGLNKEMWGGQFVGLANDYRVIAYDMLGHGQSRVPAADTPLEGYADQLAELLDHLQIAQATVIGFSMGGLVARAFALNYPQRLAALVVLNSVFNRTPEQSAGVIARAAQAAELGPDANVDAALDRWFSREYKAANPAQVAAIRQVLASNDPQGYHTTYSLFATQDMYRADDLGSIQVPTLIATGELDSGSTPAMTRQLAACIPGARSVVLAEQRHMMPVEAPREVNKMLLDFLTQARTLTESAKGIVA
[7]; pH 8, 37°C
  Km: 1.0 ± 0.1 mM
  kcat: 6.2 ± 0.3 s⁻¹
  kcat/Km: 6200 M⁻¹ s⁻¹
[9]
  Km: 0.8 ± 0.1 mM
  kcat: 8.7 ± 0.4 s⁻¹
  kcat/Km: 10900 M⁻¹ s⁻¹
[8]; pH 8, 37°C
  Km: 0.1 ± 0.0 mM
  kcat: 6.8 ± 0.1 s⁻¹
  kcat/Km: 67900 M⁻¹ s⁻¹
[10]
  Km: 0.2 ± 0.0 mM
  kcat: 12.1 ± 0.3 s⁻¹
  kcat/Km: 60400 M⁻¹ s⁻¹

B4: PaEST-1 (Pseudomonas aeruginosa) (protein)
chain: MKRFLLGLVLLLAVAAGVLYFVPATLLASVRTVERGLAGLSEHSVQVDNLEIAYLEGGSEKNPTLLLIHGFGADKDNWLRFARPLTERYHVVALDLPGFGDSSKPQQASYDVGTQAERVANFAAAIGVRRLHLAGNSMGGHIAALYAARHPEQVLSLALIDNAGVMPARKSELFEDLERGENPLVVRQPEDFQKLLDFVFVQQPPLPAPLKRYLGERAVAASAFNAQIFEQLRQRYIPLEPELPKIEAPTLLLWGDRDRVLDVSSIEVMRPLLKRPSVVIMENCGHVPMVERPEETAQHYQAFLDGVRNAQVAGR
[11]
  Km: 1.4 ± 0.2 mM
  kcat: 1.9 ± 0.2 s⁻¹
  kcat/Km: 1300 M⁻¹ s⁻¹
[12]
  Km: 1.2 ± 0.2 mM
  kcat: 9.2 ± 1 s⁻¹
  kcat/Km: 7600 M⁻¹ s⁻¹
[13]
  Km: 1.4 ± 0.4 mM
  kcat: 12.9 ± 2.4 s⁻¹
  kcat/Km: 9200 M⁻¹ s⁻¹

B5: PpEST-2 (Pseudomonas putida KT2440) (protein)
chain: MSTFVTRDGTSIYFKDWGSGKPVLFSHGWPLDADMWDSQMEFLASRGYRAIAFDRRGFGRSSQPWNGYDYDTFADDIAQLIEHLDLRDVTLVGFSMGGGDVSRYIARHGSERVAGLVLLGAVTPVFGKRDDNPDGVDLSVFEGIRAGLRADRAQFIADFATPFYGLNHGQQVSQGVQTQTLNIALMASIKGTLDCVTAFSETDFRPDMAKVDVPTLVIHGDDDQIVPFETTGKQAAELIRGAELKVYAGAPHGFAVTHAQQLNEDLLAFLQR
[7]; pH 9, 37°C
  Km: 1.1 ± 0.1 mM
  kcat: 12.5 ± 0.5 s⁻¹
  kcat/Km: 11400 M⁻¹ s⁻¹
[8]; pH 9, 37°C
  Km: 1.0 ± 0.1 mM
  kcat: 3 ± 0.1 s⁻¹
  kcat/Km: 3000 M⁻¹ s⁻¹

B6: SavEST-1 (Streptomyces avermitilis MA-4680 = NBRC 14893) (protein)
chain: MTSQHVVGRFFDVQGGQVYAHVREGDGPALIFLHYWGGSRRTWIPVLQRLDPGQGFVAYDQRGWGGSTSVPGPYDLEQLADDAQRVVDALGYSRYVLVGHSMGGKVAQILAARKPAGLRGVVLVAPAPPAPIGVTEQVQETVSHAYDNEEAVLQSIDLMLTRGGLTPELRRQVVEDSLRGGDEARLEWPRRGLVQDVSAGVSAIEVPVLVLAGSHDKVDPPTVLADHLLPLIPTATLTVLKDTGHLSPLEVPDQVAAHIGAFVAQL
[14]
  Km: 0.3 ± 0.0 mM
  kcat: 2.9 ± 0.1 s⁻¹
  kcat/Km: 9500 M⁻¹ s⁻¹

B7: RpEST-2 (Rhodopseudomonas palustris CGA009) (protein)
chain: MSEAVMAGAEAFAFDGGKTGVLLVHGFTGSPQSMRYLGERLGERGYSILGPRLPGHGVSPAAMAKTTANDWVNCAEDALLELSAKCDKTFVAGLSMGGTLSLYLAASHPDKVAGVIPINAAVQIDSPDLAGLAYARGLPEFVPGIGSDMVDTSTKELAYDQVPVTCVKQVMGLAATARALLPRIKCPTLVINSRVDHVLSPANATVIANHVGSSRIETLWLDNSYHVATIDNDKDLIAAEIDSFVTRNL
[15]
  Km: 1.4 ± 0.2 mM
  kcat: 52.7 ± 4.3 s⁻¹
  kcat/Km: 37600 M⁻¹ s⁻¹
[16]
  Km: 4.9 ± 1.8 mM
  kcat: 24.4 ± 7.8 s⁻¹
  kcat/Km: 4900 M⁻¹ s⁻¹
